Biological target: NRP1-PerCP-Cy5.5 (carrier free recombinant neuropilin-1 coupled to PerCP-Cy5.5) (UniProt O14786)
Assay: FRET or BRET; Scheme 3: VEGF (22.4 nM or 11.2 nM, diluted in PBS) incubated simultaneously in solution with the donor (RLuc8-Ra02 or RLuc8-4xGly-Ra02, cleared HEK293 lysate) and the acceptor NRP1-PerCP-Cy5.5, both in excess; n-CLZ in BRET assay buffer; BRET ratio magenta filter/blue filter, against a no-VEGF control

UniProt O14786, sequence (O14786 22-856): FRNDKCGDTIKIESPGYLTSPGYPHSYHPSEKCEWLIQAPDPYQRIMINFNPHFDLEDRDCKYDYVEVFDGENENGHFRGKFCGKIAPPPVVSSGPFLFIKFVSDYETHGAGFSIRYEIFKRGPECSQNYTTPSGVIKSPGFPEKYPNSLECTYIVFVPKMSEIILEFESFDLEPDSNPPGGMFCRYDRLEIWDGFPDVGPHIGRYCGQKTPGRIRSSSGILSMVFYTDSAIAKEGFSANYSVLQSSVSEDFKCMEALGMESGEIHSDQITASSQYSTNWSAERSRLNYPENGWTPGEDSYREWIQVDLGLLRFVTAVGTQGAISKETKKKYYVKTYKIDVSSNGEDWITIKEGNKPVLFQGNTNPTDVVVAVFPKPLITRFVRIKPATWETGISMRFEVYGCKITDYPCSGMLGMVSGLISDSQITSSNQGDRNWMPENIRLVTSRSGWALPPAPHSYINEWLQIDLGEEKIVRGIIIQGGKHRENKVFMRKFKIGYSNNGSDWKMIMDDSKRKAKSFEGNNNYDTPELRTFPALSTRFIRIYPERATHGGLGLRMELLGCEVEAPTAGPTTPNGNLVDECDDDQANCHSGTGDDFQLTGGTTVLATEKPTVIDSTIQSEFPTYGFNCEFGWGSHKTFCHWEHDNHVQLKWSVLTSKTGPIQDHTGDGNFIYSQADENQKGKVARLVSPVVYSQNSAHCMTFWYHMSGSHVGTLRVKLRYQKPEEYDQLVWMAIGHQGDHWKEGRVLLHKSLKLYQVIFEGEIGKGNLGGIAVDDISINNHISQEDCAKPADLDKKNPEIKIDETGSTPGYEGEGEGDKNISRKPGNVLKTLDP

“vascular endothelial growth factor (rhVEGF165) (ligand)” was tested, and the BRET ratio (donor RLuc8-4xGly-Ra02, 11.2 nM VEGF) was 114 mBU, the BRET ratio (donor RLuc8-4xGly-Ra02, 22.4 nM VEGF) was 119 mBU and the BRET ratio (donor RLuc8-Ra02, 11.2 nM VEGF) was 110 mBU. For the same substance, the BRET ratio (donor RLuc8-Ra02, 22.4 nM VEGF) was 115 mBU.

Reference: paper PMC5298718
